# In patent US20210115100A1:
# Columns and labels:
# Experiment in all cases: cell-based or functional assay
# [1] = biological target: human pro-BMP7 protein variant F9 (human) (UniProt P18075)
# [2] = biological target: wild type human mature BMP7 (SEQ ID NO: 2) (human) (UniProt P18075)
# [3] = biological target: human mature BMP7 protein variant F9 (SEQ ID NO: 8) (human) (UniProt P18075)
# [4] = biological target: wild type human pro-BMP7 (human) (UniProt P18075)
# wild type human pro-BMP7 (human), sequence (P18075 293-431, chain 1 of 2): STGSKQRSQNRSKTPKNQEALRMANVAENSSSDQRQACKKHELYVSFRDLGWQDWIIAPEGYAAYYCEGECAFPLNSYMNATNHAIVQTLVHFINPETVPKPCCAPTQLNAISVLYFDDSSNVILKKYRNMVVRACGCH
# wild type human pro-BMP7 (human), sequence (P18075 other isoform, or with tags, fused parts or gaps, chain 2 of 2): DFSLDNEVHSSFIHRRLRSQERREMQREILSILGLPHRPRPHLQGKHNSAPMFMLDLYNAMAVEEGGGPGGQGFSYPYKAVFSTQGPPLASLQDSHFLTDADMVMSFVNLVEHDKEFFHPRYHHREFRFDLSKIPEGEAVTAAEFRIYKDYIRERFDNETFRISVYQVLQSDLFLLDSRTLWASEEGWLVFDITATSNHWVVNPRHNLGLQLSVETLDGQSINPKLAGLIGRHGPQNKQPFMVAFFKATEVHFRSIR
# Follistatin, sequence (P19883 30-344): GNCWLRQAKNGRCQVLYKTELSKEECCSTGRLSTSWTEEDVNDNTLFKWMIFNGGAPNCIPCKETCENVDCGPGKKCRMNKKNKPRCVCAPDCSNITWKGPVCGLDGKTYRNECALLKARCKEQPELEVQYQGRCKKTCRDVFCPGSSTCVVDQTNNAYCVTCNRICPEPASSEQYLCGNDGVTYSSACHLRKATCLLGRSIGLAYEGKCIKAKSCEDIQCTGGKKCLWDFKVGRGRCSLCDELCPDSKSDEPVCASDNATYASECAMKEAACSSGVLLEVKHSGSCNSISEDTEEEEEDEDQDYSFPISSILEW
# wild type human mature BMP7 (SEQ ID NO: 2) (human), sequence (P18075 293-431): as the sequence (P18075 293-431, chain 1 of 2) above
# human pro-BMP7 protein variant F9 (human), sequence (P18075 other isoform, or with tags, fused parts or gaps mutant, chain 1 of 2): as the sequence (P18075 293-431, chain 1 of 2) above, with Y65G, I86L, F93V, N110G, Y128W counted along it
# human pro-BMP7 protein variant F9 (human), sequence (P18075 other isoform, or with tags, fused parts or gaps mutant, chain 2 of 2): as the sequence (P18075 other isoform, or with tags, fused parts or gaps, chain 2 of 2) above
# human mature BMP7 protein variant F9 (SEQ ID NO: 8) (human), sequence (P18075 other isoform, or with tags, fused parts or gaps mutant): as the sequence (P18075 293-431, chain 1 of 2) above, with Y65G, I86L, F93V, N110G, Y128W counted along it
"% inhibition, 0.1X molar excess of inhibitor (hepcidin promoter luciferase, Hep3B2 HepPro luc cells) [1] [%]","% inhibition, 1X molar excess of inhibitor (hepcidin promoter luciferase, Hep3B2 HepPro luc cells) [1] [%]","% inhibition, 10X molar excess of inhibitor (hepcidin promoter luciferase, Hep3B2 HepPro luc cells) [1] [%]","% inhibition, 100X molar excess of inhibitor (hepcidin promoter luciferase, Hep3B2 HepPro luc cells) [1] [%]","% inhibition, 0.1X molar excess of inhibitor (hepcidin promoter luciferase, Hep3B2 HepPro luc cells) [2] [%]","% inhibition, 1X molar excess of inhibitor (hepcidin promoter luciferase, Hep3B2 HepPro luc cells) [2] [%]","% inhibition, 10X molar excess of inhibitor (hepcidin promoter luciferase, Hep3B2 HepPro luc cells) [2] [%]","% inhibition, 100X molar excess of inhibitor (hepcidin promoter luciferase, Hep3B2 HepPro luc cells) [2] [%]","% inhibition, 0.01X molar excess of inhibitor (hepcidin promoter luciferase, Hep3B2 HepPro luc cells) [3] [%]","% inhibition, 0.1X molar excess of inhibitor (hepcidin promoter luciferase, Hep3B2 HepPro luc cells) [3] [%]","% inhibition, 1X molar excess of inhibitor (hepcidin promoter luciferase, Hep3B2 HepPro luc cells) [3] [%]","% inhibition, 10X molar excess of inhibitor (hepcidin promoter luciferase, Hep3B2 HepPro luc cells) [3] [%]","% inhibition, 0.1X molar excess of inhibitor (hepcidin promoter luciferase, Hep3B2 HepPro luc cells) [4] [%]","% inhibition, 1X molar excess of inhibitor (hepcidin promoter luciferase, Hep3B2 HepPro luc cells) [4] [%]","% inhibition, 10X molar excess of inhibitor (hepcidin promoter luciferase, Hep3B2 HepPro luc cells) [4] [%]","% inhibition, 100X molar excess of inhibitor (hepcidin promoter luciferase, Hep3B2 HepPro luc cells) [4] [%]",Substance
-5.9,-5.3,-1.3,-17.7,-13.1,-9.2,21.3,70.9,3.7,6.8,5.2,5.6,-15.1,-2.2,18.9,76.5,Chordin
3.5,2.4,8.8,24.9,-13.7,49,69.5,71.9,-1.5,-3.2,-1,9,8.9,55.9,87.5,88.2,Chordin-like 2
-2.6,-4.3,11.7,22.5,-16.6,-11.9,21.1,54.7,3.9,10.6,10,23.8,-10.4,5.9,29.5,79.8,Follistatin
